Results: PMC8994517

Biological target: Human Hsp90α (human) (UniProt P07900)
Test: cryo-EM structure

In the case of “MBP (maltose-binding protein)-GR ligand-binding domain (LBD) (F602S) (520-777) (from UniProt P04150 520-777) (domain or fragment)”, the stoichiometry N (GR per Hsp90 dimer) is reported as 1.
